Measured values: patent publication US20060193821, “Aptamers to the human IL-12 cytokine family and their use as autoimmune disease therapeutics” (published 2006)

B1: rRmY clone SEQ 86 (ssRNA)
RNA: GGGAGAGGAGAGAACGUUCUACUAAUGCAGGCUCAGUUACUACUGGAAGUCGCUGUCGAUCGAUCGAUCGAUG
modifications: 2'-OMe C,U
B2: rRmY clone SEQ 79 (ssRNA)
RNA: GGGAGAGGAGAGAACGUUCUACAAAAGGCAGGCUCAGGGGAUCACUGGAAGUCGCUGUCGAUCGAUCGAUCGAUG
modifications: 2'-OMe C,U
B3: rRmY clone SEQ 82 (ssRNA)
RNA: GGGAGAGGAGAGAACGUUCUACGAGAGGCAAGAGAGAGUCGCAUAAAAAAGACGCUGUCGAUCGAUCGAUCGAUG
modifications: 2'-OMe C,U
B4: rRmY clone SEQ 75 (ssRNA)
RNA: GGGAGAGGAGAGAACGUUCUACAGGUUAAGAGCAGGCUCAGGAAUGGAAGUCGCUGUCGAUCGAUCGAUCGAUG
modifications: 2'-OMe C,U
B5: rRmY clone SEQ 73 (ssRNA)
RNA: GGGAGAGGAGAGAACGUUCUACAAAUGAGAGCAGGCCGAAAAGGAGUCGCUCGCUGUCGAUCGAUCGAUCGAUG
modifications: 2'-OMe C,U
B6: rRmY clone SEQ 71 (ssRNA)
RNA: GGGAGAGGAGAGAACGUUCUACAAAUGAGAGCAGGCCGAAGAGGAGUCGCUCGCUGUCGAUCGAUCGAUCGAUG
modifications: 2'-OMe C,U
B7: rRmY clone SEQ 81 (ssRNA)
RNA: GGGAGAGGAGAGAACGUUCUACGAAUGAGAGCAGGCCGAAAAGGAGUCGCUCGCUGUCGAUCGAUCGAUCGAUG
modifications: 2'-OMe C,U
B8: rRmY clone SEQ 78 (ssRNA)
RNA: GGGAGAGGAGAGAACGUUCUACAAAAGAGAGCAGGCCGAAAAGGAGUCGCUCGCUGUCGAUCGAUCGAUCGAUG
modifications: 2'-OMe C,U
B9: rRmY clone SEQ 72 (ssRNA)
RNA: GGGAGAGGAGAGAACGUUCUACAAAUGAGAGCAGGCCGAAAAGGAGUCGCUCGCUGUCGAUCGAUCGAUCGAUG
modifications: 2'-OMe C,U
B10: rRmY clone SEQ 74 (ssRNA)
RNA: GGGAGAGGAGAGAACGUUCUACGGUAAAGCAGGCUGACUGAAAGGUUGAAGUCGCUGUCGAUCGAUCGAUCGAUG
modifications: 2'-OMe C,U
B11: rRmY clone SEQ 87 (ssRNA)
RNA: AGGAGAGGAGAGAACGUUCUACUAGAAGCAGGCUCGAAUACAAUUCGGAAGUCGCUGUCGAUCGAUCGAUCGAUG
modifications: 2'-OMe C,U
B12: rRmY clone SEQ 84 (ssRNA)
RNA: GGGAGAGGAGAGAACGUUCUACGGAAAAAGAUAUGAAAGAAAGGAUUAAGAGACGCUGUCGAUCGAUCGAUCGAUG
modifications: 2'-OMe C,U
B13: rRmY clone SEQ 77 (ssRNA)
RNA: GGGAGAGGAGAGAACGUUCUACAACAAAGCAGGCUCAUAGUAAUAUGGAAGUCGCUGUCGAUCGAUCGAUCGAUG
modifications: 2'-OMe C,U
B14: AMX86-A7 (ssRNA)
RNA: GGGAAAAGCGAAUCAUACACAAGAUCUCUUUGGCCGACGCAACAAUGCUCUUUUCCGACCUUGCGCUCCGCCAGAGACCAACCGAGAA
modifications: 2'-F C,U
B15: AMX86-C5 (ssRNA)
RNA: GGGAAAAGCGAAUCAUACACAAGAGUUUUAUGUGGGUCCCGAUGAUUAACUUUAUUGGCGCAUUGCUCCGCCAGAGACCAACCGAGAA
modifications: 2'-F C,U
B16: AMX86-B10 (ssRNA)
RNA: GGGAAAAGCGAAUCAUACACAAGAGAACGAGUAUAUUUGCGCUGGCGGAGAAGUCUCUCGAAGGGAGCUCCGCCAGAGACCAACCGAGAA
modifications: 2'-F C,U
B17: AMX86-B7 (ssRNA)
RNA: GGGAAAAGCGAAUCAUACACAAGAAUGAAUUCCGUCCACGGGCGCCCGAUGAUGUCAGUUUUCGGCUCCGCCAGAGACCAACCGAGAA
modifications: 2'-F C,U
B18: AMX86-A10 (ssRNA)
RNA: GGGAAAAGCGAAUCAUACACAAGAGUAAUGUGGGUCCCGAUGAUUCGCUGUGCGGCGUUUGUAGCUCCGCCAGAGACCAACCGAGAA
modifications: 2'-F C,U
B19: AMX86-C9 (ssRNA)
RNA: GGGAAAAGCGAAUCAUACACAAGACUCAUGGAUAUGGCCUAGCAGCCGUGGAAGCGGUCAUUCUGCUCCGCCAGAGACCAACCGAGAA
modifications: 2'-F C,U
B20: A10.min1 (ssRNA)
RNA: GGAGAUCAUACACAAGAAGUUUUUUGUGCUCUGAGUACUCAGCGUCCGUAAGGGAUCUCC
modifications: 2'-F C,U
B21: C11.1 (ssRNA)
RNA: GGAAGAAUGGUCGGAAUCUCUGGCGCCACGCUGAGUAUAGACGGAAGCUCCGCCAGA
modifications: 2'-F C,U
B22: C10.1 (ssRNA)
RNA: GGACACAAGAGAUGUAUUCAGGCGGUCCGCAUUGAUGUCAGUUAUGCGUAGCUCCGCC
modifications: 2'-F C,U

biological target: T1, IL-23 (human, p19/p40 heterodimer) (Homo sapiens, UniProt Q9NPF7;P29460 SEQ:20-189,SEQ:23-328); test: filter; DPBS Ca Mg; conditions: tags: R&D Systems, carrier free
T1 sequence (Q9NPF7 20-189, chain 1 of 2): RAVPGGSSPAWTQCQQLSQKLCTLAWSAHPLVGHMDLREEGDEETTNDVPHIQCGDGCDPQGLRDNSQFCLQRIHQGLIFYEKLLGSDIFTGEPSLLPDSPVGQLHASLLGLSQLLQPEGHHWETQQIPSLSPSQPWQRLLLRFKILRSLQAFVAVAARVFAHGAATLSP
T1 sequence (P29460 23-328, chain 2 of 2): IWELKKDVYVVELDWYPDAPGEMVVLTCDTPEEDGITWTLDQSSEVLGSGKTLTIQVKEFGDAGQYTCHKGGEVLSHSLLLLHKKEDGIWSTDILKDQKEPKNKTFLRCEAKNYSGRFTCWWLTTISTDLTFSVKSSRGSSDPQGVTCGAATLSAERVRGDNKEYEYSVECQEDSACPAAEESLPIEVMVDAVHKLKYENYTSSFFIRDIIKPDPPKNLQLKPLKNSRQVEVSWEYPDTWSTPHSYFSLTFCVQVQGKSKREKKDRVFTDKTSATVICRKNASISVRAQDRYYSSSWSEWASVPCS
Experimental: The selection progress was monitored using the dot blot sandwich filter binding assay as described in Example 1A. The 5′-³²P-labeled pool RNA was refolded at 90° C. for 3 minutes and cooled to room temperature for 10 minutes. Next, pool RNA (trace concentration) was incubated with h-IL-23 DPBS plus 0.1 mg/mL tRNA for 30 minutes at room temperature and then applied to a nitrocellulose and nylon filter sandwich in a dot blot apparatus (Schleicher and Schuell). The percentage of pool RNA bound to the nitrocellulose was calculated and monitored approximately every 3 rounds with a single point screen (+/−250 nM h-IL-23). Pool KD measurements were measured using a titration of h-IL-23 protein (R&D, Minneapolis, Minn.) and the dot blot apparatus as described above.
The rRmY h-IL-23 selection was enriched for h-IL-23 binding vs. the naïve pool after 4 rounds of selection (data not shown). The selection stringency was increased and the selection was continued for 8 more rounds. […] The rGmH selection was enriched over the naïve pool binding at Round 10. […] FIG. 7 is a binding curve of rRmY and rGmH pool selection binding to h-IL-23. The pools were cloned using TOPO TA cloning kit (Invitrogen, Carlsbad, Calif.) and individual sequences were generated and tested for binding. A single point binding screen was initially performed on all crude rRmY clone transcriptions using a 1:200 dilution, +/−200 nM IL-23, plus 0.1 mg/mL competitor tRNA. […] The 10 point screen was performed using zero to 480 nM IL-23 in 3 fold serial dilutions. Binding curves were generated (KaleidaGraph v. 3.51, Synergy Software) and KDs were estimated by fitting the data to the equation: fraction RNA bound=amplitude[h-IL-23]/KD+[h-IL-23]). […] There was one group of 6 duplicate sequences and 4 pairs of 2 duplicate sequences out of the rRmY clones generated. […] Clones were also tested from 48 crude rGmH clone transcriptions at a 1:200 dilution and 0.1 mg/mL tRNA was used as competitor.

B1 was tested. Which Kd did it give?
Its Kd is 219 nM.

B2 was tested. Which Kd did it give?
The Kd was 807 nM.

Which Kd does the source give for B3 here?
The Kd was 199 nM.

B4 was tested. Which Kd did it give?
The Kd was 479 nM.

For B5, which Kd is on record?
The Kd was 101 nM.

B6 was tested. Which Kd did it give?
The Kd was 124 nM.

Which Kd does the source give for B7 here?
The Kd was 303 nM.

For B8, which Kd is on record?
The Kd was 124 nM.

B9 was tested. Which Kd did it give?
Its Kd is 211 nM.

With B10 as the binder, how does the Kd read?
The Kd was 257 nM.

B11 was tested. Which Kd did it give?
Its Kd is 122 nM.

With B12 as the binder, how does the Kd read?
Its Kd is 602 nM.

How did the Kd turn out when B13 was run?
The Kd was 259 nM.

biological target: IL-12 (human, p35/p40 heterodimer) (Homo sapiens, UniProt P29459;P29460 SEQ:57-253,SEQ:23-328); test: filter; tRNA; conditions: not given
Sequence (P29459 23-219, chain 1 of 2): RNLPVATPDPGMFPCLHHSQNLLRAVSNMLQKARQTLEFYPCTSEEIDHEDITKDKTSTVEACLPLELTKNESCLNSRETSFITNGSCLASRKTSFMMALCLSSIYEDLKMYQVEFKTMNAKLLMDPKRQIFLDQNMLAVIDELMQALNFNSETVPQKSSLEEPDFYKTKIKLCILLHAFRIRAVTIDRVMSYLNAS
Sequence (P29460 23-328, chain 2 of 2): as the sequence (P29460 23-328, chain 2 of 2) above
Experimental: (§1) Monitoring Progress of rRfY Selection. Dot blot binding assays were performed throughout the selections to monitor the protein binding affinity of the pools. Trace ³²P-labeled RNA was combined with a dilution series of h-IL-23 and incubated at room temperature for 30 minutes in 1×SHMCK (20 mM Hepes, 120 mM NaCl, 5 mM KCl, 1 mM MgCl₂, 1 mM CaCl₂, pH 7.4) plus 0.1 mg/mL tRNA for a final volume of 20 μL. The binding reactions were analyzed by nitrocellulose filtration using a Minifold I dot-blot, 96-well vacuum filtration manifold (Schleicher & Schuell, Keene, N.H.). A three-layer filtration medium was used, consisting (from top to bottom) of Protran nitrocellulose (Schleicher & Schuell), Hybond-P nylon (Amersham Biosciences) and GB002 gel blot paper (Schleicher & Schuell). RNA that is bound to protein is captured on the nitrocellulose filter, whereas the non-protein bound RNA is captured on the nylon filter. The gel blot paper was included simply as a supporting medium for the other filters. Following filtration, the filter layers were separated, dried and exposed on a phosphor screen (Amersham Biosciences, Piscataway, N.J.) and quantified using a Storm 860 Phosphorimager® blot imaging system (Amersham Biosciences).
(§2) When a significant positive ratio of binding of RNA in the presence of h-IL-23 versus in the absence of h-IL-23 was seen, the pools were cloned using a TOPO TA cloning kit (Invitrogen, Carlsbad, Calif.) according to the manufacturer's instructions. For the h-IL-23 and X-IL-23 selections, the Round 8 pool templates were cloned, and 32 individual clones from each selections were assayed in a 1-point dot blot screen (+/−75 nM h-IL-23, as well as a separate screen at +/−75 nM h-IL-12). For the PN-IL-23 selection, the Round 10 pool was cloned and sequenced, and 8 unique clones were assayed for protein binding in a 1-point dot blot screen (+/−200 nM h-IL-23 and a separate screen at +/−200 nM h-IL-12). Subsequently, the Round 10 PN-IL-23 pool was re-cloned for further sequences, as well as the R12 PN-IL-23 pool, and the clones were assayed for protein binding in a 1 point do blot screen (+/−100 nM h-IL-23 or +/−200 nM h-IL-12).

How did the Kd turn out when B14 was run?
Its Kd is 668 nM.

Which Kd does the source give for B15 here?
Its Kd is 400 nM.

B16 was tested. Which Kd did it give?
The Kd was 1040 nM.

How did the Kd turn out when B17 was run?
Its Kd is 934 nM.

With B18 as the binder, how does the Kd read?
Its Kd is 289 nM.

For B19, which Kd is on record?
The Kd was 673 nM.

biological target: T1, IL-23 (human, p19/p40 heterodimer); test: filter; 100 nM IL-23; conditions: tags: R&D Systems, carrier free

GGAGGCGCCACGCUGAGUAUAGACGGAAGCUCCGCCUCC (ssRNA, 2'-F C,U) [C11.2] was tested. Which binding signal did it give?
Its binding signal is 2.3 +/- ratio.

With GGAUCAUACACAAGAAGUGCUUCACGAAAGUGACGUCGAAUAGAUCC (ssRNA, 2'-F C,U) [B10.min3] as the binder, how does the binding signal read?
The binding signal was 0.8 +/- ratio.

With GGAUACCCGAGAGGGCUGGCGAAAGCCUCGGCGAGAGCUAUCC (ssRNA, 2'-F C,U) [Type 1.3] as the binder, how does the binding signal read?
Its binding signal is 0.6 +/- ratio.

GGUUAAAUCUCAUCGUCCCCGUUUGGGGAU (ssRNA, 2'-F C,U) [F11.min1] was tested. Which binding signal did it give?
Its binding signal is 0.6 +/- ratio.

B20 was tested. Which binding signal did it give?
The binding signal was 3.1 +/- ratio.

With GGAAUCAUACACAAGAGUGUAUUACCCCCAACCCAGGGGGACCAUUCC (ssRNA, 2'-F C,U) [D9.1] as the binder, how does the binding signal read?
The binding signal was 3.9 +/- ratio.

How did the binding signal turn out when B21 was run?
The binding signal was 3.5 +/- ratio.

For GGAGUCUGAGUACUCAGCGUCCCGAGAGGGGAUAUGCUCCGCCAGACUCC (ssRNA, 2'-F C,U) [A10.min4], which binding signal is on record?
The binding signal was 0.7 +/- ratio.

GGCAUACACGAGAGUGCUGUCGAAAGACUCGGCCGAGAGGCUAUGCC (ssRNA, 2'-F C,U) [Type 1.1] was tested. Which binding signal did it give?
Its binding signal is 0.9 +/- ratio.

How did the binding signal turn out when GGCAUACGCGAGAGCGCUGGCGAAAGCCUCGGCCGAGAGGCUAUGCC (ssRNA, 2'-F C,U) [Type 1.2] was run?
The binding signal was 0.7 +/- ratio.

With B22 as the binder, how does the binding signal read?
The binding signal was 4.4 +/- ratio.

biological target: T1, IL-23 (human, p19/p40 heterodimer); test: filter; SHMCK, tRNA; conditions: tags: R&D Systems, carrier free
Experimental: as §1, §2

Which Kd does the source give for B14 here?
The Kd was 57.7 nM.

With B15 as the binder, how does the Kd read?
The Kd was 80.3 nM.

For B16, which Kd is on record?
Its Kd is 77.8 nM.

How did the Kd turn out when B17 was run?
The Kd was 111 nM.

Which Kd does the source give for B18 here?
Its Kd is 461 nM.

How did the Kd turn out when B19 was run?
The Kd was 97.9 nM.
